Measured values published in patent US20180214514A1 (GEORGETOWN UNIVERSITY, published 2018).

B1: human recombinant FGFR1 Fc chimera (Fc fusion, UniProt P11362 22-376, looked up)
chain: RPSPTLPEQAQPWGAPVEVESFLVHPGDLLQLRCRLRDDVQSINWLRDGVQLAESNRTRITGEEVEVQDSVPADSGLYACVTSSPSGSDTTYFSVNVSDALPSSEDDDDDDDSSSEEKETDNTKPNRMPVAPYWTSPEKMEKKLHAVPAAKTVKFKCPSSGTPNPTLRWLKNGKEFKPDHRIGGYKVRYATWSIIMDSVVPSDKGNYTCIVENEYGSINHTYQLDVVERSPHRPILQAGLPANKTVALGSNVEFMCKVYSDPQPHIQWLKHIEVNGSKIGPDNLPYVQILKTAGVNTTDKEMEVLHLRNVSFEDAGEYTCLAGNSIGLSHHSAWLTVLEALEERPAVMTSPLYLE
notes: It was immobilized on a CM-5 SPR chip; not shown: Fc part of the chimera

What was measured:
[1] = target: T1, MBP-tagged recombinant human FGFBP3 (MBP-BP3) (human, UniProt P0AEX9 27-392 = MBP, limits assumed); assay: SPR, BP3 over immobilized FGFR1 Fc chimera (FIG. 6B)
T1 construct: Bacterially expressed MBP fusion; The order MBP then BP3 follows the pMAL-p2X vector design; also called hBP3
Description: (§1) Biacore T200 instrument (GE Healthcare) was used for surface plasmon resonance measurements. Human recombinant FGFR4 or FGFR1 Fc chimera in HBS-P buffer (0.01 M HEPES pH 7.4, 0.15 M NaCl, 0.05% P-20) were immobilized on a flow cell of a CM-5 sensor chip (GE Healthcare, Piscataway, N.J.) via amine coupling. A blank flow cell was used as a negative control for non-specific binding to the sensor surface. […] Dissociation constants were calculated from the association and dissociation rates of the proteins after washing. The experiments were performed in triplicate.

[2] = target: T2, human recombinant FGFR4 Fc Chimera (human, UniProt P22455 22-369); assay: SPR, C66 over immobilized FGFR4 (FIG. 7B)
T2 construct: Bought reagent; It was immobilized on ELISA plates and on a CM-5 SPR chip; also called FGF Receptor 4; fibroblast growth factor receptor 4; Fc part of the bought chimera not given
Description: as §1

[3] = target: B1; assay: SPR, equilibrium binding to immobilized FGFR1 Fc chimera (FIG. 7C)
Description: as §1

[4] = target: T3, human recombinant FGF19 (human, UniProt O95750 25-216); assay: SPR, C66 over immobilized FGF19 (FIG. 7B)
T3 construct: Bought recombinant protein; also called fibroblast growth factor 19
T3 sequence (O95750 25-216 limits assumed): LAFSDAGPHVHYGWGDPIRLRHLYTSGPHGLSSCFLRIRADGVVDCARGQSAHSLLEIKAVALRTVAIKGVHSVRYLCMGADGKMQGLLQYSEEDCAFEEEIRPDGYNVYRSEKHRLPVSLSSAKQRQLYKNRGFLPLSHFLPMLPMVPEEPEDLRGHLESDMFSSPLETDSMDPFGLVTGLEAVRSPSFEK

| Binder | binding result [1] | binding result [2] | binding result [3] | binding result [4] |
| --- | --- | --- | --- | --- |
| B1 | no binding (tested: 4, 2, or 1 nM) | – | – | – |
| MBP-tagged C66 fusion protein (C-terminal 66-amino acid FGF-binding domain of human BP3) (other, not shown: large carriers, MBP fusion with an apparent molecular mass of 52 kDa; also called C66 fragment; C-terminal hBP3 region) APPKENPSERKTNEGKRKAALVPNEERPMGTGPDPDGLDGNAELTETYCAEKWHSLCNFFVNFWNG | – | no binding (tested: 245 nM) | no binding (tested: 245 nM) | binds |
